{
  "source": "patent US20210332086A1",
  "about": "(published 2021)",
  "binders": {"B1": {"name": "Peptide 1 (WT) (peptide)", "peptide": "SLTQINTTLLDLTYEMLSLQQVVKALNESYIDLKEL"}},
  "molecular_target": "MERS-CoV S-protein (on 293FT effector cells) (MERS-CoV, UniProt K9N5Q8)",
  "experiment": "cell-based or functional assay",
  "data": [
    {"binder": "B1", "values": [
      {"measurement": "EC50 (µM), cell-cell fusion assay", "result": 1.05, "unit": "µM"}
    ]}
  ]
}
